Experimental data from the supplement of paper PMC9170038.

Test system: MS2 coat protein
Test: apparent KD of MS2 coat protein; designed switch direction (-1 OFF switch, 1 ON switch): 1; higher = weaker reporter binding
How it was run: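 RNA switches sharing common flanks were transcribed by stalled E. coli RNA polymerase on Illumina chips. A doubling series of SNAP-549-labelled MS2 coat protein, from 0.7 or 1.5 nM to 3 µM, was applied in Tris-HCl pH 7.5 buffer with KCl, MgCl2, BSA, DTT, tRNA and Tween-20. Each step lasted 0.8–1.5 h at the bottom of the series and 10–20 min at the top. Normalised cluster fluorescence was curve-fitted, giving apparent KD as the per-design median over clusters.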

[1] = input ligand: microRNA oligo, concentration not stated
[2] = Eterna round: R95, input ligand: FMN 200 uM
[3] = Eterna round: R95, input ligand: microRNA oligo, concentration not stated
[4] = Eterna round: R95, input ligand: none

Sequence | apparent KD of MS2 coat protein (input ligand: FMN 200 uM) | apparent KD of MS2 coat protein [1] | apparent KD of MS2 coat protein (input ligand: none) | apparent KD of MS2 coat protein [2] | apparent KD of MS2 coat protein [3] | apparent KD of MS2 coat protein [4]
CCAUAGUACAAUUUAGAUCUACAUGAGGAUCACCCAUGUACUGAGGAUAUCAGCUCGAAUAGAGCUGAGAAGGCAGAAGUACUU [SSNG3/6-A1] (Eterna round: R96, puzzle: Same State NG 3) | 22.6 nM | 101 nM | 83.6 nM | – | – | –
CCAUAGUACAAUUUAGAUCUACAUGAGGAUCACCCAUGUACUGAGGAUAUCAGCUCGAUUAGAGCUGAGAAGGCAGAAGUACUU [SSNG3/6-A2] (Eterna round: R96, puzzle: Same State NG 3) | 39.3 nM | 64.6 nM | 81.1 nM | – | – | –
CCAUAGUACAAUUUAGAUCUACAUGAGGAUCACCCAUGUACUGAGGAUAUCAGCUCGUUUAGAGCUGAGAAGGCAGAAUUAAUU [SSNG3/5-A3] (Eterna round: R96, puzzle: Same State NG 3) | 57.1 nM | 116 nM | 112 nM | – | – | –
CCAUGGUAACAUGAGGAUCACCCAUGUACAAGCUUUUUGCUCGGUUUUAUCCCGGGCCCGGAUUACACGGGCCCGGG [Initial Design] (puzzle: Sensor for hsa-mir-208a version 2) | – | – | – | 41.4 nM | 50.7 nM | 33.6 nM
CCCUGAGGUAACCUACAGGGACAUGAGGAUCACCCAUGUACACAGGAUAUCGAAGGCUCCGCCCUCGAGAAGGGUGAUCAAACU [Leuslein] (Eterna round: R96, puzzle: Same State NG 3) | 1520 nM | 266 nM | 109 nM | – | – | –
CCGAGUGGCGUACAGGAUAUGUUGCGUGGAACAUGAGGAUCACCCAUGUAUUUGCUCCUGCAUACGCAGAAGGGUGCGUCCUGGG [Estedibe] (Eterna round: R96, puzzle: Same State 2) | 16 nM | 24.1 nM | 29.3 nM | – | – | –
CCGAUGACAGGACAGGAUAUGACUGUCGUCACAUGAGGAUCACCCAUGUCCCGGCAAUGCCACCGUUAGAAGGGUCCUAUCUCGG [Arxeina] (puzzle: Same State 2) | – | – | – | 16.7 nM | 16.3 nM | 18.2 nM
CCGAUGUGGGUACAGGAUAUGUGGGCCUCCACAUGAGGAUCACCCAUGUCGGAGGCAAAGCGGCUACAGAAGGGUGCGUGCUCGA [Riinceer] (puzzle: Same State 2) | – | – | – | 13.1 nM | 11.3 nM | 12.3 nM
CCGAUGUGGGUACAGGAUAUGUGGGCCUCCACAUGAGGAUCACCCAUGUCGGAGGCAAUGCGGCUACAGAAGGGUGCGAGCUCGA [Tileorat] (puzzle: Same State 2) | – | – | – | 14.1 nM | 10.9 nM | 13.5 nM
CCGCUAAAUGGAGGAUAUGGAGCCUUAUUGGCUCCAGAAGGCUAAAACAUGAGGAUCACCCAUGUGCGGCGGUCUAAUGACCGA [Eli NG1ss - 49] (Eterna round: R96, puzzle: Same State NG 1) | 14.7 nM | 34.6 nM | 49.3 nM | – | – | –
CCGGCAAGUAUAGGAUAUCCCGCAACAGAAGCGGGAGAAGGGUGCCAAACAUGAGGAUCACCCAUGUACACCGGAAAUAAAUAA [Veaat] (Eterna round: R96, puzzle: Same State NG 1) | 92.9 nM | 46.6 nM | 30.5 nM | – | – | –
CCGUAAUAUGGAGGAUAUGGAGCCUUAUUGGCUCCAGAAGGUCAAAACAUGAGGAUCACCCAUGUAUCGGCGGUCAAUAGACCG [Eli NG1ss - 74] (Eterna round: R96, puzzle: Same State NG 1) | 42.1 nM | 53.3 nM | 91.2 nM | – | – | –
CCUUAGUACAAUUUAGAUCUACAUGAGGAUCACCCAUGUACUGAGGAUAUCAGCUCGAUUAGAGCUGAGAAGGCAGAAGUACUU [SSNG3/7-A2] (Eterna round: R96, puzzle: Same State NG 3) | 90.9 nM | 122 nM | 144 nM | – | – | –
CCUUAGUACAAUUUAGAUCUACAUGAGGAUCACCCAUGUACUGAGGAUAUCAGCUCGUUUAGAGCUGAGAAGGCAGAAGUACUU [SSNG3/7-A3] (Eterna round: R96, puzzle: Same State NG 3) | 75.1 nM | 67.6 nM | 140 nM | – | – | –
CCUUCGGGAGUAGGAUAUGUAGGAUAUGCCUACAUGAGGAUCACCCAUGUUCGCAUGGCAGAAGGACAGAAGGACACGUUCGCG [pwkr ssNG2 2FMN + 1F5.13] (Eterna round: R96, puzzle: Same State NG 2) | 95.4 nM | 287 nM | 652 nM | – | – | –
CGAAAGAAGCGAGGAUAUGCAGAGGAUCACCCUGCAGAAGGCGCAAAAGCGAGGAUAUGCAGAGGAUCACCCUGCAGAAGGCGC [pwkr ssNG DX.32] (Eterna round: R96, puzzle: Same State NG 1) | 20.2 nM | 20.5 nM | 18.1 nM | – | – | –
CGAACACGUUGAGGAUAUGCAGAGGAUCACCCUGUAGAAGGCAACAGAUGAGGAUAUGCAGAGGAUCACCCUGUAGAAGGCAAC [pwkr ssNG DX.5] (Eterna round: R96, puzzle: Same State NG 1) | 54.3 nM | 68.6 nM | 116 nM | – | – | –
CGACACACGGCAGGAUAUCGAUUCCAAAGGAAUCGAGAAGGGCCUCAUGUCGUGGAAACGUGACAUGAGGAUCACCCAUGUCGC [Omei SS(NG)1 Cv17] (Eterna round: R96, puzzle: Same State NG 1) | 17.2 nM | 11 nM | 16.9 nM | – | – | –
CGACACACGGCAGGAUAUCGAUUCCAAAGGAAUCGAGAAGGGCCUCAUGUCGUGGAAACGUGACAUGAGGAUCACCCAUGUUGC [Omei SS(NG)1 Cv18] (Eterna round: R96, puzzle: Same State NG 1) | 26.8 nM | 11.6 nM | 24.6 nM | – | – | –
CGAUACACGGCAGGAUAUCGAUUCCAAAGGAAUCGAGAAGGGCCUCAUGUCGUGGAAACGUGACAUGAGGAUCACCCAUGUUGC [Omei SS(NG)1 Cv20] (Eterna round: R96, puzzle: Same State NG 1) | 84.4 nM | 36.1 nM | 55.4 nM | – | – | –
CGAUGAUACUUAGGAAGAAGAGUUGAGGUACAUGAGGAUCACCCAUGUCGGAGCUUUUUGCUCGUCAUGAACAGGAA [JR_SHM208a_Sub007] (puzzle: Sensor for hsa-mir-208a) | – | – | – | 65.2 nM | 34.8 nM | 79.5 nM
CGAUUCGCCAGUACAUGAGGAUCACCCAUGUAGAGACCAGUUUAGGAUAUCUUUGCGACGUGCUGAGAGAAGGGAAUAUGGAGC [Eternabot solution 45] (Eterna round: R96, puzzle: Same State NG 3) | 33.1 nM | 27.5 nM | 37.4 nM | – | – | –
CGCAUCCUUGUUACAUGAGGAUCACCCAUGUUUUCGAGUGGAGAGGAUAUCGUAACAGUAUUUUUCGAGAAGGCUCUAUAGUUU [JR_SSNG3_Sub080] (Eterna round: R96, puzzle: Same State NG 3) | 41.7 nM | 37.6 nM | 56.9 nM | – | – | –
